# T1: Znf706 A2C-AF488 (Homo sapiens, UniProt Q9Y5V0 1-76, A2C)
# T1 sequence: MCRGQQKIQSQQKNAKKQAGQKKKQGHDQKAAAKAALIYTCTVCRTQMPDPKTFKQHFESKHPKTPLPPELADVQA
# Target: T1, Znf706 A2C-AF488
# Test: fluorescence anisotropy; 20 mM NaPi, 100 mM KCl, 0.05% NaN3, pH 7.4, 25 C (FP/anisotropy); unfolded G4: 20 mM Tris-HCl, 100 mM LiCl, pH 7.4; G4C2 also 20 mM NaPi, 100 mM NaCl, pH 7.4; NMR at 4 C or 37-50 C with 7.5% D2O
# Conditions: protein: recombinant; tags: AF488 label on Cys; His6-SUMO cleaved
row,Binder,binding result
1,AAAAAAAAAAAAAAAAAAAA (ssDNA) [polyA],no binding
2,TTTTTTTTTTTTTTTTTTTT (ssDNA) [polyT],no binding
